# Laboratory results reported in patent US8329186B2, “Treatment of inflammation using BST2 inhibitor” (Isu Abxis Co., Ltd, priority 2004, dated 2012).
# B1: Bst2 decoy: soluble Bst2 protein fragment having the amino acid sequence of SEQ ID NO:1; extracellular region of human Bst2, six-histidine tag (protein)
# chain: NSEACRDGLRAVMECRNVTHLLQQELTEAQKGFQDVEAQAATCNHTVMALMASLDAEKAQGQKKVEELEGEITTLNHKLQDASAEVERLRRENQVLSVRIADKKYYPSSQDHHHHHH
# Tests used:
# mouse model of asthma = assay: Ovalbumin-induced mouse model of asthma: infiltrating cells in bronchoalveolar lavage; assay type: in vivo; details: ovalbumin-sensitized mice
# Experimental: A mouse model of asthma was prepared by sensitizing mice (C57B6, 8 weeks) with ovalbumin. In detail, mice were initially sensitized for five continuous days by intranasal injection of ovalbumin. After three weeks, mice were intranasally sensitized again with ovalbumin for five continuous days. One week after the secondary sensitization, mice were challenged intranasally with ovalbumin three times every 24 hrs to induce asthma. Herein, a Bst2 decoy was intravenously injected into mice 30 min before sensitization with ovalbumin, and was injected into mice 30 min before the first sensitization and the last injection of ovalbumin. Three days after the last injection, serum samples, lung tissues, and the like were collected from mice.
# A mouse model of asthma was prepared as described in Example 8-1.
# The effect of Bst2 decoy-Fc fusions on immune cell infiltration was assessed as described in Example 8-2. When ovalbumin-sensitized mice were treated with a Bst2 decoy, the total number of infiltrating cells was decreased and, especially, the number of neutrophils, eosinophils and lymphocytes except for macrophage was decreased in bronchoalveolar lavage (BAL) (FIG. 27).
# A mouse model of asthma was prepared as described in Example 8-1. The effect of anti-Bst2/Damp1 antibodies on immune cell infiltration was assessed as described in Example 8-2. […]
# TNF-alpha, IL-6, HMGB-1 = assay: CLP sepsis model: plasma inflammatory proteins (ELISA); assay type: in vivo, rat
# Description: (§1) A rat model of sepsis was induced through cecal ligation and puncture (CLP) as described previously (Wichterman K A, Baue A E, Chaudry I H: Sepsis and septic shock-a review of laboratory models and a proposal. J Surg Res 29:189-201, 1980). An incision was made along the midline of the abdomen on an anesthetized animal. The cecum was exteriorized, ligated and punctured with a stainless steel needle. An appropriate amount of fecal matter was then extruded. The gauge of the needle, number of punctures and amount of fecal matter extruded are all factors in determining the severity of sepsis and mortality. […] The incision was sutured and appropriate post-operative care was administered. Sham-operated animals were subjected to similar laparotomy and intestinal manipulation, however, the cecum was neither ligated nor punctured. Immediately or 6 hours after the CLP procedure, animals were given intravenous injection of vehicle or a Bst2 decoy.
# Blood samples were collected at 1, 3, 6, 18 and 24 hours post-CLP. Plasma levels of representative inflammatory response proteins were measured using ELISA kits; TNF-alpha(BD Biosciences, San Diego, Calif.) and IL-6(BD Biosciences, San Diego, Calif.) at 1, 3, and 6 hours, HMGB-1 (Shino-Test Corp., Japan) at 18 and 24 hours. Typically, after CLP in rodents, TNF-alpha spikes at 3 hours and IL-6 spikes at 6 hours.
# interleukin-2 (IL-2) = assay: IL-2 expression in activated Jurkat cells (real-time RT-PCR); assay type: cell-based, human; details: 3-fold increased by Jurkat cell activation
# Experimental: Intracellular expression levels of specific genes were analyzed by real-time quantitative RT-PCR using ABI Prism 7900HT (Applied Biosystems, Foster City, Calif.) and a SYBR-Green assay kit. Primers and probes used were designed using Primer Express software (Applied Biosystems).
# 10 ng of single-stranded cDNA was placed in a reaction tube and subjected to multiplex TaqMan PCR (50 μl) using the TaqMan Universal PCR Master Mix. The relative amount of target cDNA was calculated using the comparative cycle threshold (CT) method. PCR products were analyzed by agarose gel electrophoresis.
# The relative levels of a specific gene A were expressed as a change compared to a control sample (untransfected cells). […] The above experiments were carried out to quantify the expression of the Bst2 gene and interleukin-2.
# When Jurkat cells (5×10^5 cells/ml) were incubated with anti-CD3 monoclonal antibody (OKT3: 10 μg/ml, BD Pharmingen) at 4° C. for 20 min and then with anti-mouse immunoglobulin polyclonal antibody (25 μg/ml, Zymed) 37° C. for 1 hr, cell aggregation occurred, and the cells were activated and induced to produce interleukin-2 (IL-2) (FIGS. 10 and 11). […] IL-2 mRNA levels upon T cell activation were measured by real-time RT-PCR (Example 3). […]
# CLP sepsis = assay: Cecal ligation and puncture (CLP) sepsis model: survival; assay type: in vivo, rat
# Description: as §1
# Mortality of animals was monitored for up to 14 days after the procedure. […] 3, 10, and 30 mg/kg doses were administered immediately following the CLP procedure and daily survival monitored over the course of 14 days.
molecule,measurement,setting,value
B1,"number of infiltrating cells in bronchoalveolar lavage (total, neutrophils, eosinophils, lymphocytes)",mouse model of asthma,remarkably decreased
same,plasma IL-6 spike,"TNF-alpha, IL-6, HMGB-1; 1, 3 and 6 hours post-CLP",substantially suppressed
same,plasma TNF-alpha response,"TNF-alpha, IL-6, HMGB-1; 1, 3 and 6 hours post-CLP",virtually absent
same,plasma HMGB-1,"TNF-alpha, IL-6, HMGB-1; 18 and 24 hours post-CLP",reducing both the amount and rate of increase
same,expression of IL-2,interleukin-2 (IL-2),decreased again to the basal level
same,14 day survival rate,CLP sepsis; 3 mg/kg intravenous immediately following CLP,37.5%
same,14 day survival rate,CLP sepsis; 10 mg/kg intravenous immediately following CLP,80%
same,14 day survival rate,CLP sepsis; 30 mg/kg intravenous immediately following CLP,75%
same,14-day survival rate,CLP sepsis; administration 6 hours post-CLP,70%
